In patent US20230227568A1 (Pieris, published 2023):
Read-outs that look alike come from different tables or passages of the source.

T1: human OX40 on cells (human, UniProt P43489 29-277)
T1 construct: whole, on cells; Stably transfected CHO cells (flow cytometry) and bought Jurkat reporter cells (OX40 bioassay); also called Flp-In-CHO::huOX40; human OX40-expressing CHO cells
T1 sequence (looked up): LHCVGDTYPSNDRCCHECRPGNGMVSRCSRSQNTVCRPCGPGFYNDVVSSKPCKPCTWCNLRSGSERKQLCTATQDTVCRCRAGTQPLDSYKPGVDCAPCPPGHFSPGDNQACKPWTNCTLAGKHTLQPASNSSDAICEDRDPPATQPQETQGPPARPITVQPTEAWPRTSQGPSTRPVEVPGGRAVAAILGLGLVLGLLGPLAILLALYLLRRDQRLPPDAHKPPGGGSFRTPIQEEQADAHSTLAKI


Experiments:
[1] = molecular target: T2, recombinant hu4-1BB-His (human 4-1BB with a C-terminal polyhistidine tag, R&D Systems) (human, UniProt Q07011 24-186); experiment: ELISA, hu4-1BB-His coated, detection anti-NGAL-HRP
T2 construct: Bought; not shown: C-terminal polyhistidine tag
Protocol: Recombinant hu4-1BB-His (human 4-1BB with a C-terminal polyhistidine tag, R&D Systems) at the concentration of 1 μg/mL in PBS was coated overnight on microtiter plates at 4° C. After washing with PBS-0.05% T (PBS supplemented with 0.05% (v/v) Tween 20), the plates were blocked with 2% BSA (w/v) in PBS-0.1% T (PBS supplemented with 0.1% (v/v) Tween 20) for 1 h at room temperature. After washing with 100 μL PBS-0.05% T five times, exemplary multimeric proteins (SEQ ID NOs: 38-44 and 46-53) or 4-1BB-specific lipocalin mutein as included in the multimeric protein (SEQ ID NO: 64) at different concentrations, ranging from 100 to 0.002 nM, were added to the wells and incubated for 1 h at room temperature, followed by another wash step. Bound molecules under study were detected by incubation with 1:1000 diluted anti-NGAL-HRP in PBS-0.1% T-2% BSA. After an additional wash step, fluorogenic HRP substrate (QuantaBlu, Thermo) was added to each well and the fluorescence intensity was detected using a fluorescence microplate reader.
The results of exemplary experiments are depicted in FIG. 2, together with the fit curves resulting from a 1:1 binding sigmoidal fit, where the EC₅₀ value and the maximum signal were free parameters, and the slope was fixed to one. The observed EC₅₀ values toward the hu4-1BB of all tested multimeric proteins were in the sub nanomolar range.

[2] = molecular target: T3, human 4-1BB on cells (human, UniProt Q07011 24-255); experiment: cell-based or functional assay
[3] = molecular target: T3, human 4-1BB on cells; experiment: flow cytometry, Flp-In-CHO::hu4-1BB cells
Protocol: (§1) CHO cells were stably transfected with human 4-1BB, cynomolgus 4-1BB, or a mock control using the Flp-In system (Life Technologies) according to the manufacturer's instructions. Transfected CHO cells were maintained in Ham's F12 medium (Life Technologies) supplemented with 10% Fetal Calf Serum (Biochrom) and 500 μg/ml Hygromycin B (Roth). Cells were cultured in cell culture flasks according to manufacturer's instruction (37° C., 5% CO₂ atmosphere).
(§2) 5×10⁴ cells per well were incubated for 1 h in ice-cold PBS containing 5% fetal calf serum (PBS-FCS). A dilution series of the tested multimeric proteins (SEQ ID NOs: 38-44 and 46-55), the 4-1BB-targeting lipocalin mutein as included in the multimeric proteins (SEQ ID NO: 64) or the GPC3-targeting lipocalin SEQ ID NO: 90 were added to the cells and incubated for 1 h on ice. Cells were washed twice with PBS and then incubated with a rabbit anti-NGAL or a goat anti-human IgG labeled with fluorescent dye Alexa 488 for 30 min on ice. Human IgG4 isotype (SEQ ID NOs: 29 and 30) and lipocalin mutein SEQ ID NO: 8 were tested as a negative control. Cells were subsequently washed and analyzed using iQue Flow cytometer (Intellicyte Screener). Mean geometric fluorescent signals were plotted and fitted with Graphpad software using nonlinear regression (shared bottom, four parameters, variable slope).

[4] = molecular target: T4, hu4-1BB-Fc (R&D Systems) (human, UniProt Q07011 24-186); experiment: SPR (Biacore 8K), hu4-1BB-Fc captured by anti-human IgG Fc; apparent value, 1:1 fit
T4 construct: Bought; also called human 4-1BB; not shown: human IgG Fc of the bought fusion
Protocol: The anti-human IgG Fc antibody (GE Healthcare) was immobilized on a CM5 sensor chip using standard amine chemistry: the carboxyl groups on the chip were activated using 1-ethyl-3-(3-dimethylaminopropyl)-carbodiimide (EDC) and N-hydroxysuccinimide (NHS). Subsequently, anti-human IgG Fc antibody solution (GE Healthcare) at a concentration of 25 μg/mL in 10 mM sodium acetate (pH 5.0) was applied at a flow rate of 5 μL/min until an immobilization level of 4000-10000 resonance units (RU) was achieved. Residual non-reacted NHS-esters were blocked by passing a solution of 1 M ethanolamine across the surface. The reference channel was treated in an analogous manner. Subsequently, hu4-1BB-Fc (R&D Systems) at 0.3 μg/mL was captured by the anti-human IgG-Fc antibody at the chip surface for 180 s at a flow rate of 10 μL/min.
The binding assay was carried out with a contact time of 180 s, a dissociation time of 1200 s or 3000 s and a flow rate of 30 μL/min. All measurements were performed at 25° C. Lipocalin mutein SEQ ID NO: 64 as included in the multimeric proteins was also tested as […]. […] Prior to the protein measurements, three startup cycles were performed for conditioning purposes. Data were evaluated with Biacore Evaluation software. Double referencing was used and the 1:1 binding model was used to fit the raw data.

[5] = molecular target: T5, cynomolgus 4-1BB on CHO cells (cynomolgus, UniProt A9YYE7 24-254); experiment: flow cytometry, Flp-In-CHO::cyno4-1BB cells
T5 construct: also called Flp-In-CHO::cyno4-1BB; cynomolgus 4-1BB-expressing CHO cells
Protocol: as §1, §2

[6] = molecular target: T3, human 4-1BB on cells; experiment: flow cytometry, Flp-In-CHO::hu4-1BB cells; remark: listed apart in the source
Protocol: as §2
(§3) Target-specific binding of hexavalent trimeric proteins to human 4-1BB-, OX40- or PD-L1-expressing cells was assessed by flow cytometry as described in Example 5, using CHO cells stably transfected with human 4-1BB, human OX40 or human PD-L1 (Flp-In system; Life Technologies).

[7] = molecular target: T1, human OX40 on cells; experiment: flow cytometry, Flp-In-CHO::huOX40 cells
Protocol: as §2, §3

[8] = molecular target: T6, human GPC3 on HepG2 cells (human, UniProt P51654 25-554); experiment: flow cytometry, HepG2 cells
T6 construct: whole, on cells; Endogenous GPC3 of the tumor cell line; also called GPC3-positive tumor cell line HepG2; human GPC3-expressing HepG2 cells
Protocol: GPC3-positive tumor cell line HepG2 was cultured in Dulbecco's Modified Eagle's Medium ([…], Pan Biotech) supplemented with 10% Fetal Calf Serum (Sigma-Aldrich) and in cell culture flasks according to manufacturer's instruction (37° C., 5% CO₂ atmosphere).
as §2

T3 sequence (Q07011 24-255): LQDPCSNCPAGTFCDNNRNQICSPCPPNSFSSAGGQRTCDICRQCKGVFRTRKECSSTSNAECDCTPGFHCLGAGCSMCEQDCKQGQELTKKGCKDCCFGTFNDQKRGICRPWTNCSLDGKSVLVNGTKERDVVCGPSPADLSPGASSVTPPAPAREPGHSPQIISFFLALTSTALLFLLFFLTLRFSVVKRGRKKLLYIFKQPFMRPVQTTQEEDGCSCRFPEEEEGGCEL
T5 sequence (A9YYE7 entry or part of it limits assumed): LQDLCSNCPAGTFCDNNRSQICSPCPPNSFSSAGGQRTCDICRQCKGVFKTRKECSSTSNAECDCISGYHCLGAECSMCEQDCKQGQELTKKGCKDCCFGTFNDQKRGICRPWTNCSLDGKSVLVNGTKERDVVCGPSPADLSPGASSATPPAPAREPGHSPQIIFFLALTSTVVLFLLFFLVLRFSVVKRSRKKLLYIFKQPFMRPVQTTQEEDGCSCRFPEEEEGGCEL
T6 sequence (P51654 25-554 limits assumed): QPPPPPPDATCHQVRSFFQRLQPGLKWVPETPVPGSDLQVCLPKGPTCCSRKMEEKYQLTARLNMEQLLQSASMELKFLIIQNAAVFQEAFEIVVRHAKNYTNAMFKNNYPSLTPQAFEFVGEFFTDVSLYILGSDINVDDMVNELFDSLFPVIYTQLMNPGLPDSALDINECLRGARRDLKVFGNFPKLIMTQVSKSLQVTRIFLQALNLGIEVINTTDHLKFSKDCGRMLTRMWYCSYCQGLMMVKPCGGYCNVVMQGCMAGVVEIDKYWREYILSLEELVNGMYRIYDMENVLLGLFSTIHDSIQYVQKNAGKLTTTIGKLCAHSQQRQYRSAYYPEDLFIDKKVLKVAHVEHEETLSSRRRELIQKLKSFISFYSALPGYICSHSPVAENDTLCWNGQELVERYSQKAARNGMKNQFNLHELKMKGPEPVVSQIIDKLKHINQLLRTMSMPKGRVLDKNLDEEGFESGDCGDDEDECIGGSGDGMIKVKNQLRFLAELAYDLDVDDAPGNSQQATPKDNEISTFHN

Row | Binder | EC50 [1] [nM] | EC50 [nM], 4-1BB bioassay (NFκB-luc2/4-1BB Jurkat luminescence), with HepG2 cells [2] [nM] | EC50 [3] [nM] | Kd [4] [nM] | koff [4] [s⁻¹] | kon [4] [M⁻¹ s⁻¹] | EC50 [5] [nM] | EC50 [6] [nM] | EC50 [7] [nM] | EC50 [8] [nM]
1 | multimeric protein SEQ ID NO: 51 (designed binder) QDSTSDLIPAPPLSKVPLQQNFQDNQFHGKWYVVGQAGNIRLREDKDPIKMMATIYELKEDKSYDVTMVKFDDKKCMYDIWTFVPGSQPGEFTLGKIKSFPGHTSSLVRVVSTNYNQHAMVFFKFVFQNREEFYITLYGRTKELTSELKENFIRFSKSLGLPENHIVFPVPIDQCIDGAEAAAKEAAAKEAAAKAGVRLWATRQAMLGQVHEVPEGWLIFVAEQEELYVRVQNGFRKVQLEARTPLGGGGSGGGGSGGGGSQDSTSDLIPAPPLSKVPLQQNFQDNQFHGKWYVVGQAGNIRLREDKDPIKMMATIYELKEDKSYDVTMVKFDDKKCMYDIWTFVPGSQPGEFTLGKIKSFPGHTSSLVRVVSTNYNQHAMVFFKFVFQNREEFYITLYGRTKELTSELKENFIRFSKSLGLPENHIVFPVPIDQCIDGGGSGGAPEQKLISEEDLGSHHHHHHHHHH | 0.15 | 0.97 | 4.41 | 0.36 | 2.53e-05 | 71000 | 4.41 | – | – | –
2 | bispecific hexavalent trimeric protein SEQ ID NO: 165 (designed binder) QDSTSDLIPAPPLSKVPLQQNFQDNQFHGKWYVVGQAGNIRLREDKDPIKMMATIYELKEDKSYDVTMVKFDDKKCMYDIWTFVPGSQPGEFTLGKIKSFPGHTSSLVRVVSTNYNQHAMVFFKFVFQNREEFYITLYGRTKELTSELKENFIRFSKSLGLPENHIVFPVPIDQCIDGGGGGSGGGGSGGGGSQDSTSDLIPAPPLSKVPLQQNFQDSQFQGKWYVVGFAGNYRLREDKDPGKMQATIYELREDKAYQVTGVLFPHKKCHDDIVIFVPGSQPGEFILGWIKSDPGITSDLVRVVSTDYNQHAMVFFKWVFQNREWFYITLYGRTKALTSELKENFIRFSKSLGLPEDHIVFPVPIDQCIDGGGGGSGGGGSGGGGSGVRLWATRQAMLGQVHEVPEGWLIFVAEQEELYVRVQNGFRKVQLEARTPLGGSGGAPEQKLISEEDLGSHHHHHHHHHH | – | – | – | – | – | – | – | 2.19 | 0.18 | –
3 | multimeric protein SEQ ID NO: 50 (designed binder) QDSTSDLIPAPPLSKVPLQQNFQDNQFHGKWYVVGQAGNIRLREDKDPIKMMATIYELKEDKSYDVTMVKFDDKKCMYDIWTFVPGSQPGEFTLGKIKSFPGHTSSLVRVVSTNYNQHAMVFFKFVFQNREEFYITLYGRTKELTSELKENFIRFSKSLGLPENHIVFPVPIDQCIDGGGGGSGGGGSGGGGSGGGGSGGGGSGVRLWATRQAMLGQVHEVPEGWLIFVAEQEELYVRVQNGFRKVQLEARTPLGGGGSGGGGSGGGGSQDSTSDLIPAPPLSKVPLQQNFQDNQFHGKWYVVGQAGNIRLREDKDPIKMMATIYELKEDKSYDVTMVKFDDKKCMYDIWTFVPGSQPGEFTLGKIKSFPGHTSSLVRVVSTNYNQHAMVFFKFVFQNREEFYITLYGRTKELTSELKENFIRFSKSLGLPENHIVFPVPIDQCIDGGGSGGAPEQKLISEEDLGSHHHHHHHHHH | 0.13 | 0.92 | 2.49 | 0.17 | 1.36e-05 | 78800 | 2.62 | – | – | –
4 | multimeric protein SEQ ID NO: 53 (designed binder) GVRLWATRQAMLGQVHEVPEGWLIFVAEQEELYVRVQNGFRKVQLEARTPLGGGGSGGGGSGGGGSQDSTSDLIPAPPLSKVPLQQNFQDNQFHGKWYVVGQAGNIRLREDKDPIKMMATIYELKEDKSYDVTMVKFDDKKCMYDIWTFVPGSQPGEFTLGKIKSFPGHTSSLVRVVSTNYNQHAMVFFKFVFQNREEFYITLYGRTKELTSELKENFIRFSKSLGLPENHIVFPVPIDQCIDGGGGGSGGGGSGGGGSQDSTSDLIPAPPLSKVPLQQNFQDNQFHGKWYVVGQAGNIRLREDKDPIKMMATIYELKEDKSYDVTMVKFDDKKCMYDIWTFVPGSQPGEFTLGKIKSFPGHTSSLVRVVSTNYNQHAMVFFKFVFQNREEFYITLYGRTKELTSELKENFIRFSKSLGLPENHIVFPVPIDQCIDGGGSGGAPEQKLISEEDLGSHHHHHHHHHH | 0.14 | 1.83 | 4.2 | 0.13 | 9.99e-06 | 77100 | 4.55 | – | – | –
5 | bispecific hexavalent trimeric protein SEQ ID NO: 166 (designed binder) QDSTSDLIPAPPLSKVPLQQNFQDSQFQGKWYVVGFAGNYRLREDKDPGKMQATIYELREDKAYQVTGVLFPHKKCHDDIVIFVPGSQPGEFILGWIKSDPGITSDLVRVVSTDYNQHAMVFFKWVFQNREWFYITLYGRTKALTSELKENFIRFSKSLGLPEDHIVFPVPIDQCIDGGGGGSGGGGSGGGGSQDSTSDLIPAPPLSKVPLQQNFQDNQFHGKWYVVGQAGNIRLREDKDPIKMMATIYELKEDKSYDVTMVKFDDKKCMYDIWTFVPGSQPGEFTLGKIKSFPGHTSSLVRVVSTNYNQHAMVFFKFVFQNREEFYITLYGRTKELTSELKENFIRFSKSLGLPENHIVFPVPIDQCIDGGGGGSGGGGSGGGGSGVRLWATRQAMLGQVHEVPEGWLIFVAEQEELYVRVQNGFRKVQLEARTPLGGSGGAPEQKLISEEDLGSHHHHHHHHHH | – | – | – | – | – | – | – | 4.51 | 0.56 | –
6 | GPC3-specific lipocalin mutein SEQ ID NO: 90 (designed binder, Monomeric hNGAL mutein) QDSTSDLIPAPPLSKVPLQQNFQDNQFQGKWYVVGRAGNVGLREDKDPPKMWATIYELKEDKSYDVTNVRFARKKCTYSIGTFVPGSQPGEFTLGQIKSEPGGTANLVRVVSTNYNQHAMVFFKEVYQNREIFFIILYGRTKELTSELKENFIRFSKSLGLPENHIVFPVPIDQCIDG | – | – | – | – | – | – | – | – | – | 1.53
